# Data as given in paper PMC3457645.
# Experiments:
# Assay in all cases: purified protein
# purified protein [1] = substrate: CCCCCC(O)/C=C/C=O; conditions: NAD+
# purified protein [2] = substrate: CC=O; assay type: biochemical, Homo sapiens; conditions: NAD+
# purified protein [3] = substrate: CCCCCC=O; assay type: biochemical, Homo sapiens; conditions: NAD+
# purified protein [4] = substrate: CCCCCCCC=O; assay type: biochemical, Homo sapiens; conditions: NAD+
# purified protein [5] = substrate: CC(=O)Oc1ccc([N+](=O)[O-])cc1; assay type: biochemical, Homo sapiens
# purified protein [6] = substrate: O=Cc1ccccc1; assay type: biochemical, Homo sapiens; conditions: NAD+
protein,measurement,setting,value
ALDH3B1 (Homo sapiens) (protein) MDPLGDTLRRLREAFHAGRTRPAEFRAAQLQGLGRFLQENKQLLHDALAQDLHKSAFESEVSEVAISQGEVTLALRNLRAWMKDERVPKNLATQLDSAFIRKEPFGLVLIIAPWNYPLNLTLVPLVGALAAGNCVVLKPSEISKNVEKILAEVLPQYVDQSCFAVVLGGPQETGQLLEHRFDYIFFTGSPRVGKIVMTAAAKHLTPVTLELGGKNPCYVDDNCDPQTVANRVAWFRYFNAGQTCVAPDYVLCSPEMQERLLPALQSTITRFYGDDPQSSPNLGRIINQKQFQRLRALLGCGRVAIGGQSDESDRYIAPTVLVDVQEMEPVMQEEIFGPILPIVNVQSLDEAIEFINRREKPLALYAFSNSSQVVKRVLTQTSSGGFCGNDGFMHMTLASLPFGGVGASGMGRYHGKFSFDTFSHHRACLLRSPGMEKLNALRYPPQSPRRLRMLLVAMEAQGCSC,Km,purified protein [1],52 ± 5 µM
same,Vmax,purified protein [1],0.653 µmol/min/mg
same,Km,purified protein [2],23300 ± 1500 µM
same,Vmax,purified protein [2],0.315 µmol/min/mg
same,Km,purified protein [3],62 ± 8 µM
same,Vmax,purified protein [3],0.679 µmol/min/mg
same,Km,purified protein [4],8 ± 2 µM
same,Vmax,purified protein [4],1.24 µmol/min/mg
same,Km,purified protein [5],3600 ± 250 µM
same,Vmax,purified protein [5],1.32 µmol/min/mg
same,Km,purified protein [6],46 ± 11 µM
same,Vmax,purified protein [6],0.129 µmol/min/mg
